This passage reports Binding affinity results from patent publication US20250011363A1, “OPTIMIZED SHORTENED PEPTIDE THAT BINDS TO ACETYLCHOLINE RECEPTOR, AND USE THEREOF” (SKINMED CO., LTD., priority 2021, published 2025).

This assay addresses acetylcholine receptor (Homo sapiens, UniProt P02708). The assay can be described thus: SPR binding affinity (RU) of optimized 5mer/6mer/7mer peptides, Examples 6-7. Put shortly:
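Using surface plasmon resonance, binding to the acetylcholine receptor was measured for each sequence at a single 10 μM concentration. Values are response units.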

[1] abbreviates: SPR, Resonance Units; peptides tested at 10 μM; 6mer-1 Bottom sequence.
The mark [2] stands for this setting: SPR, peptides tested at 10 μM; 6mer-1 Bottom sequence.
Where [3] appears, read: SPR, peptides tested at 10 μM; 6mer-1 Top sequence.
The mark [4] stands for this setting: 6mer-2 Top sequence; SPR; peptides tested at 10 μM.

Chain of acetylcholine receptor (P02708 21-457): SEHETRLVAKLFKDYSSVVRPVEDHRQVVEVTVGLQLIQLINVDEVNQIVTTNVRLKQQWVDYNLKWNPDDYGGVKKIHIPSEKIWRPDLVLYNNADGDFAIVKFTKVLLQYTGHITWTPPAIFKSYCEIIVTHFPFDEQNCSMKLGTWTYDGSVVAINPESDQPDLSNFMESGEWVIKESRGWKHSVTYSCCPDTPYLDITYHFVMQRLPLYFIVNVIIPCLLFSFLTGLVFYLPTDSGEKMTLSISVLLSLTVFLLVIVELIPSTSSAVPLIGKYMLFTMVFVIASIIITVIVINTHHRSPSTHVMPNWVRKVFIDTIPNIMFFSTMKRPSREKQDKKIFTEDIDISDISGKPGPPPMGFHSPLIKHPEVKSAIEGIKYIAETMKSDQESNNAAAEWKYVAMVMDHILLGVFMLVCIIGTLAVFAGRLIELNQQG

For 6mer-1-1090 (KKTMWR), the Binding affinity under setting [1] was 27 Ru.

For the substance 6mer-1-1091 (KKDDGK), the Binding affinity under setting [1] was determined as 32 Ru.

In the case of 6mer-1-1092 (RKYHDK), under setting [1], the Binding affinity was found to be 43 Ru.

6mer-1-1093 (RRKSDR): the Binding affinity under setting [1] is 37 Ru.

Regarding 6mer-1-1094 (RRMAIK), under setting [1], the Binding affinity is listed as 42 Ru.

As to 6mer-1-1095 (RRCHVK), the Binding affinity under setting [1] worked out at 27 Ru.

For 6mer-1-1096 (RKPEPR), the Binding affinity under setting [1] stood at 23 Ru.

For 6mer-1-1097 (RKNCNK), the Binding affinity under setting [1] stood at 39 Ru.

Regarding 6mer-1-1098 (RKKDMR), the Binding affinity under setting [1] is on record as 42 Ru.

Turning to 6mer-1-1099 (RRKTDR), the Binding affinity under setting [1] worked out at 24 Ru.

For the substance 6mer-1-1100 (KRMSHK), the Binding affinity under setting [1] was 43 Ru.

For 6mer-1-1101 (RRECDK), under setting [1], the Binding affinity is given as 37 Ru.

As to 6mer-1-1102 (KRFTKK), under setting [1], the Binding affinity came out at 35 Ru.

In the case of 6mer-1-1103 (KREDNK), under setting [1], the Binding affinity is listed as 27 Ru.

On to 6mer-1-1104 (KRNSAR), for which the Binding affinity under setting [1] is 28 Ru.

6mer-1-1105 (RRCTAR): the Binding affinity under setting [1] came out at 40 Ru.

6mer-1-1106 (KRFMNK): the Binding affinity under setting [1] was 39 Ru.

For 6mer-1-1107 (KRCPPR), the Binding affinity under setting [1] came out at 36 Ru.

6mer-1-1108 (RRAHNK): under setting [1], the Binding affinity was 43 Ru.

In the case of 6mer-1-1109 (KRCCVR), the Binding affinity under setting [1] was 41 Ru.

As to 6mer-1-1110 (RKFTER), under setting [1], the Binding affinity is listed as 24 Ru.

Regarding 6mer-1-1111 (RRASPR), the Binding affinity under setting [1] is 38 Ru.

Consider 6mer-1-1112 (KKDPWK), for which the Binding affinity under setting [1] stood at 27 Ru.

For the substance 6mer-1-1113 (RRCTMK), the Binding affinity under setting [1] amounted to 28 Ru.

6mer-1-1114 (KKFNFK): the Binding affinity under setting [1] was determined as 38 Ru.

On to 6mer-1-1115 (RKCAFR), for which, under setting [1], the Binding affinity was found to be 43 Ru.

As to 6mer-1-1116 (KRHPFR), the Binding affinity under setting [1] is on record as 35 Ru.

As to 6mer-1-1117 (KKEWFR), the Binding affinity under setting [1] is on record as 40 Ru.

Regarding 6mer-1-1118 (KKDTIK), the Binding affinity under setting [1] was 33 Ru.

6mer-1-1119 (KRIWVR): the Binding affinity under setting [1] was determined as 31 Ru.

As to 6mer-1-1120 (RRKEAK), under setting [1], the Binding affinity worked out at 22 Ru.

Regarding 6mer-1-1121 (KKTWWR), under setting [1], the Binding affinity turned out to be 28 Ru.

As to 6mer-1-1122 (RRTMGR), the Binding affinity under setting [1] came out at 33 Ru.

6mer-1-1123 (RRDNVK): the Binding affinity under setting [1] came out at 41 Ru.

Consider 6mer-1-1124 (KKDEIR), for which, under setting [1], the Binding affinity is 21 Ru.

With 6mer-1-1125 (KKPTDR), the Binding affinity under setting [1] came to 26 Ru.

Regarding 6mer-1-1126 (RRHCDK), the Binding affinity under setting [1] is listed as 41 Ru.

Take 6mer-1-1127 (RKMMMK): the Binding affinity under setting [1] is 34 Ru.

Regarding 6mer-1-1128 (KKKKPK), under setting [1], the Binding affinity is 39 Ru.

Turning to 6mer-1-1129 (RKDHAR), under setting [1], the Binding affinity was found to be 39 Ru.

With 6mer-1-1130 (RKATFR), the Binding affinity under setting [1] is on record as 31 Ru.

Regarding 6mer-1-1131 (RKDNIK), the Binding affinity under setting [1] came out at 42 Ru.

As for 6mer-1-1132 (RRKAER), under setting [1], the Binding affinity was 31 Ru.

For 6mer-1-1133 (KKPNIK), under setting [1], the Binding affinity is listed as 24 Ru.

Take 6mer-1-1134 (KRMSWK): the Binding affinity under setting [1] is 22 Ru.

With 6mer-1-1135 (KKHTER), the Binding affinity under setting [1] was found to be 26 Ru.

For the substance 6mer-1-1136 (KKIEIK), the Binding affinity under setting [1] came out at 34 Ru.

In the case of 6mer-1-1137 (KRFTDK), the Binding affinity under setting [1] was determined as 33 Ru.

As to 6mer-1-1138 (KRDCFR), the Binding affinity under setting [1] is reported as 21 Ru.

As for 6mer-1-1139 (KKMENR), under setting [1], the Binding affinity came to 36 Ru.

Turning to 6mer-1-1140 (KRATMK), the Binding affinity under setting [1] came out at 43 Ru.

Consider 6mer-1-1141 (KRNMHK), for which the Binding affinity under setting [1] came to 40 Ru.

Turning to 6mer-1-1142 (KKETPR), the Binding affinity under setting [1] was found to be 24 Ru.

Consider 6mer-1-1143 (KRHEFK), for which the Binding affinity under setting [1] was 32 Ru.

Consider 6mer-1-1144 (KKCMGR), for which the Binding affinity under setting [1] was 25 Ru.

Regarding 6mer-1-1145 (RRDCKK), the Binding affinity under setting [1] came out at 40 Ru.

6mer-1-1146 (KKMMPK): the Binding affinity under setting [1] is on record as 34 Ru.

Consider 6mer-1-1147 (RKAPHR), for which, under setting [1], the Binding affinity is given as 35 Ru.

Regarding 6mer-1-1148 (RRCSHR), under setting [1], the Binding affinity is recorded as 31 Ru.

Regarding 6mer-1-1149 (RKMTPK), the Binding affinity under setting [1] stood at 30 Ru.

6mer-1-1150 (KRKWWR): under setting [1], the Binding affinity was 34 Ru.

Take 6mer-1-1151 (KKKEAK): the Binding affinity under setting [1] is 34 Ru.

With 6mer-1-1152 (RKYKEK), the Binding affinity under setting [1] amounted to 23 Ru.

Take 6mer-1-1153 (RKHNKK): under setting [1], the Binding affinity was 23 Ru.

For the substance 6mer-1-1154 (RKCEKR), under setting [1], the Binding affinity amounted to 41 Ru.

In the case of 6mer-1-1155 (RKKEKR), under setting [1], the Binding affinity is listed as 28 Ru.

Turning to 6mer-1-1156 (KRYTVR), under setting [1], the Binding affinity worked out at 37 Ru.

As for 6mer-1-1157 (RKESVR), under setting [1], the Binding affinity was 36 Ru.

For the substance 6mer-1-1158 (RKPMMK), the Binding affinity under setting [1] is listed as 33 Ru.

6mer-1-1159 (RRAWPR): the Binding affinity under setting [1] was found to be 39 Ru.

Take 6mer-1-1160 (RRDWAK): the Binding affinity under setting [1] was 29 Ru.

Consider 6mer-1-1161 (KRHWVK), for which the Binding affinity under setting [1] is reported as 40 Ru.

Take 6mer-1-1162 (KKCDHR): the Binding affinity under setting [1] is given as 41 Ru.

As for 6mer-1-1163 (RKCAFK), the Binding affinity under setting [1] turned out to be 21 Ru.

Consider 6mer-1-1164 (KKHHAK), for which, under setting [1], the Binding affinity was 41 Ru.

As to 6mer-1-1165 (RRATWR), the Binding affinity under setting [1] is reported as 29 Ru.

As for 6mer-1-1166 (KKEEKR), the Binding affinity under setting [1] was determined as 22 Ru.

6mer-1-1167 (KRHMMK): the Binding affinity under setting [1] was determined as 42 Ru.

In the case of 6mer-1-1168 (KKEKFR), the Binding affinity under setting [1] was determined as 40 Ru.

6mer-1-1169 (RKMDIR): the Binding affinity under setting [1] amounted to 32 Ru.

Consider 6mer-1-1170 (KKYNPK), for which the Binding affinity under setting [1] was determined as 25 Ru.

As for 6mer-1-1171 (RKIAFK), the Binding affinity under setting [1] came out at 40 Ru.

6mer-1-1172 (RRFNFR): under setting [1], the Binding affinity is on record as 23 Ru.

Turning to 6mer-1-1173 (KKIPMK), under setting [1], the Binding affinity is recorded as 26 Ru.

In the case of 6mer-1-1174 (RKDAIR), under setting [1], the Binding affinity is reported as 30 Ru.

Consider 6mer-1-1175 (RKTWEK), for which, under setting [1], the Binding affinity stood at 23 Ru.

Take 6mer-1-1176 (KKADHK): the Binding affinity under setting [1] is reported as 21 Ru.

6mer-1-1177 (RRHTMR): the Binding affinity under setting [1] is 21 Ru.

With 6mer-1-1178 (RKKMAK), the Binding affinity under setting [1] is on record as 29 Ru.

In the case of 6mer-1-1179 (KRMTPR), the Binding affinity under setting [1] amounted to 40 Ru.

On to 6mer-1-1180 (KRPPPK), for which the Binding affinity under setting [1] is recorded as 34 Ru.

Turning to 6mer-1-1181 (RRMDAK), the Binding affinity under setting [1] was 21 Ru.

Consider 6mer-1-1182 (KKTCHR), for which, under setting [1], the Binding affinity came out at 35 Ru.

As for 6mer-1-1183 (RKIHNK), under setting [1], the Binding affinity is listed as 35 Ru.

For 6mer-1-1184 (RRDTVK), under setting [1], the Binding affinity was 30 Ru.

Turning to 6mer-1-1185 (KKEMMK), the Binding affinity under setting [1] worked out at 29 Ru.

6mer-1-1186 (KKNNAK): the Binding affinity under setting [1] is 37 Ru.

For 6mer-1-1187 (RRHAHK), under setting [1], the Binding affinity turned out to be 26 Ru.

For the substance 6mer-1-1188 (RRMNER), the Binding affinity under setting [1] is given as 41 Ru.

On to 6mer-1-1189 (KKCHWR), for which the Binding affinity under setting [1] came to 40 Ru.

With 6mer-1-1190 (KKCMKR), under setting [1], the Binding affinity is on record as 29 Ru.

Turning to 6mer-1-1191 (RKYTKK), the Binding affinity under setting [1] is on record as 39 Ru.

For the substance 6mer-1-1192 (RKDDDR), the Binding affinity under setting [1] is 36 Ru.

Regarding 6mer-1-1193 (KKPTNK), the Binding affinity under setting [1] is 33 Ru.

Turning to 6mer-1-1194 (KKTHAK), the Binding affinity under setting [1] was determined as 22 Ru.

Regarding 6mer-1-1195 (KRDEDK), the Binding affinity under setting [1] was 25 Ru.

For the substance 6mer-1-1196 (KKTTGR), under setting [1], the Binding affinity is on record as 25 Ru.

Regarding 6mer-1-1197 (KRPMAK), under setting [1], the Binding affinity is given as 21 Ru.

For the substance 6mer-1-1198 (RRATER), the Binding affinity under setting [2] was found to be 28 Ru.

6mer-1-1199 (KKTNKR): the Binding affinity under setting [2] was determined as 39 Ru.

Consider 6mer-1-1200 (RKACEK), for which the Binding affinity under setting [2] was 21 Ru.

For the substance 6mer-1-1225 (RKLICK), the Binding affinity (6mer-1 Top sequence; SPR; peptides tested at 10 μM) worked out at 142 Ru.

6mer-1-1405 (KKVQTR): under setting [3], the Binding affinity is 148 Ru.

With 6mer-1-1458 (RKGQLK), the Binding affinity under setting [3] was 139 Ru.

As for 6mer-2-1 (RRRLKK), the Binding affinity under setting [4] came to 131 Ru.

For the substance 6mer-2-2 (RWYLKR), the Binding affinity under setting [4] is reported as 139 Ru.

As to 6mer-2-3 (KVYSRK), the Binding affinity under setting [4] is on record as 148 Ru.

Regarding 6mer-2-4 (RSYYRR), under setting [4], the Binding affinity came out at 125 Ru.

With 6mer-2-5 (RWVSKR), under setting [4], the Binding affinity is reported as 124 Ru.

In the case of 6mer-2-6 (KSICRR), the Binding affinity under setting [4] was determined as 122 Ru.

With 6mer-2-7 (KSRCRK), the Binding affinity under setting [4] is 126 Ru.

In the case of 6mer-2-8 (KSLQKK), the Binding affinity under setting [4] was 135 Ru.

6mer-2-9 (KLICRK): the Binding affinity under setting [4] was 139 Ru.

For 6mer-2-10 (KVFSKK), the Binding affinity under setting [4] turned out to be 124 Ru.

As for 6mer-2-11 (RQYQRR), the Binding affinity under setting [4] is 121 Ru.

For the substance 6mer-2-12 (RQFQRK), the Binding affinity under setting [4] amounted to 147 Ru.

As to 6mer-2-13 (RQYTRK), the Binding affinity under setting [4] turned out to be 123 Ru.

For 6mer-2-14 (RGRQKK), under setting [4], the Binding affinity is listed as 153 Ru.

With 6mer-2-15 (KQVRKR), the Binding affinity under setting [4] was determined as 133 Ru.
